# T1: human P2X1 receptor, wild type subunit (human) (UniProt P51575)
# T1 sequence: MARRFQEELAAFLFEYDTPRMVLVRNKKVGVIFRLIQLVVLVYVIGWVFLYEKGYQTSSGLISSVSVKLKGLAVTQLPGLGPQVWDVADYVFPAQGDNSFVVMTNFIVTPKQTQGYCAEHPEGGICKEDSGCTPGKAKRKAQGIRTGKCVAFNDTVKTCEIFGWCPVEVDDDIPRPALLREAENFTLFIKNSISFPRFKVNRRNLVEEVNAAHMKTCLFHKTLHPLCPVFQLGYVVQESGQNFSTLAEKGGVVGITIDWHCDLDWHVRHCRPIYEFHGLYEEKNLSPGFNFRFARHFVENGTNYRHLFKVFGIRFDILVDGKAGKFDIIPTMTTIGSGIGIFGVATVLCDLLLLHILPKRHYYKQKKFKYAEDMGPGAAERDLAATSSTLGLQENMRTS
# Biological target: T1, human P2X1 receptor, wild type subunit (human)
binder,measurement,value
"human P2X1 receptor K190C-K68A double mutant subunit (receptor, labelled with the cysteine reactive fluorophore MTS-TAMRA (K190C)) MARRFQEELAAFLFEYDTPRMVLVRNKKVGVIFRLIQLVVLVYVIGWVFLYEKGYQTSSGLISSVSVALKGLAVTQLPGLGPQVWDVADYVFPAQGDNSFVVMTNFIVTPKQTQGYCAEHPEGGICKEDSGCTPGKAKRKAQGIRTGKCVAFNDTVKTCEIFGWCPVEVDDDIPRPALLREAENFTLFICNSISFPRFKVNRRNLVEEVNAAHMKTCLFHKTLHPLCPVFQLGYVVQESGQNFSTLAEKGGVVGITIDWHCDLDWHVRHCRPIYEFHGLYEEKNLSPGFNFRFARHFVENGTNYRHLFKVFGIRFDILVDGKAGKFDIIPTMTTIGSGIGIFGVATVLCDLLLLHILPKRHYYKQKKFKYAEDMGPGAAERDLAATSSTLGLQENMRTS",ATP (100 uM) evoked decrease in MTS-TAMRA fluorescence (voltage clamp fluorometry) in oocytes co-expressing WT and K68A-K190C subunits; neither homomer shows a fluorescence change,3%

# — paper PMC5018734
